Assay results reported in the supplement of paper PMC9112550, “Optimization of the antimicrobial peptide Bac7 by deep mutational scanning” (BMC Biology, 2022).

tested on: Escherichia coli TOP10; experiment: shrunken log2 fold change of peptide-encoding DNA abundance (4.5 h post-induction vs induction); higher = less antimicrobial activity (less host growth inhibition); details: time post-induction: 4.5 h; library: site-saturation at positions 5, 18, 19, 20
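Also: peptides expressed intracellularly from a pBAD plasmid library in pooled LB shake-flask culture, induced with 0.3% L-arabinose, DNA abundance read by NGS, three biological replicates, DESeq2 with apeglm shrinkage.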

Sequence	shrunken log2 fold change
RRIRDRPPRLPRPRPRPTRIPRP	0.0348
RRIRRRPPRLPRPRPRPFNIPRP	-0.491
RRIRWRPPRLPRPRPRPVMVPRP	0.0467
RRIRQRPPRLPRPRPRPGDWPRP	0.866
RRIRCRPPRLPRPRPRPSVCPRP	0.0114
RRIRSRPPRLPRPRPRPIHFPRP	-0.106
RRIRTRPPRLPRPRPRPPYVPRP	-0.212
RRIRTRPPRLPRPRPRPFWPPRP	0.178
RRIRDRPPRLPRPRPRPSKCPRP	-0.317
RRIRPRPPRLPRPRPRPYVMPRP	-0.706
RRIRIRPPRLPRPRPRPDNPPRP	-0.152
RRIRLRPPRLPRPRPRPRHDPRP	0.0303
RRIRPRPPRLPRPRPRPDNSPRP	-0.228
RRIRIRPPRLPRPRPRPFQVPRP	0.0102
RRIRTRPPRLPRPRPRPKCWPRP	1.72
RRIRRRPPRLPRPRPRPVQGPRP	0.223
RRIRGRPPRLPRPRPRPGYTPRP	-0.0605
RRIRMRPPRLPRPRPRPECKPRP	0.0491
RRIRYRPPRLPRPRPRPFYTPRP	-1.19
RRIRGRPPRLPRPRPRPPKYPRP	0.0508
RRIRCRPPRLPRPRPRPQQGPRP	0.188
RRIRERPPRLPRPRPRPYVIPRP	-0.172
RRIRPRPPRLPRPRPRPFGHPRP	-0.0335
RRIRNRPPRLPRPRPRPNFGPRP	-0.0224
RRIRIRPPRLPRPRPRPHCAPRP	-0.0649

Sequence	shrunken log2 fold change
RRIRTRPPRLPRPRPRPKFTPRP	-0.0912
RRIRARPPRLPRPRPRPSHDPRP	0.225
RRIRFRPPRLPRPRPRPVNGPRP	-0.746
RRIRFRPPRLPRPRPRPWMHPRP	-0.0282
RRIRKRPPRLPRPRPRPCPDPRP	-0.0203
RRIRMRPPRLPRPRPRPSSAPRP	0.514
RRIRDRPPRLPRPRPRPDGMPRP	0.232
RRIRARPPRLPRPRPRPQRDPRP	0.225
RRIRYRPPRLPRPRPRPNMFPRP	-0.186
RRIRCRPPRLPRPRPRPWCKPRP	0.145
RRIRGRPPRLPRPRPRPTDFPRP	0.161
RRIRNRPPRLPRPRPRPYLVPRP	-0.161
RRIRIRPPRLPRPRPRPNFWPRP	-0.0359
RRIRTRPPRLPRPRPRPSISPRP	-0.362
RRIRFRPPRLPRPRPRPLYTPRP	-0.58
RRIRDRPPRLPRPRPRPLPEPRP	0.0958
RRIRERPPRLPRPRPRPKPNPRP	0.0803
RRIRMRPPRLPRPRPRPFIPPRP	-0.26
RRIRNRPPRLPRPRPRPLKGPRP	-0.0139
RRIRYRPPRLPRPRPRPIMYPRP	-0.0119
RRIRWRPPRLPRPRPRPTADPRP	1.51
RRIRTRPPRLPRPRPRPWKPPRP	0.0143
RRIRIRPPRLPRPRPRPVQKPRP	0.0154
RRIRWRPPRLPRPRPRPTIWPRP	0.0311
RRIRWRPPRLPRPRPRPWNHPRP	-0.0518

Sequence	shrunken log2 fold change
RRIRRRPPRLPRPRPRPGSMPRP	-0.387
RRIRERPPRLPRPRPRPWKQPRP	-0.0582
RRIRVRPPRLPRPRPRPKLGPRP	0.173
RRIRQRPPRLPRPRPRPNIVPRP	-0.044
RRIRQRPPRLPRPRPRPCKLPRP	-0.167
RRIRQRPPRLPRPRPRPHQKPRP	-0.0904
RRIRYRPPRLPRPRPRPGYNPRP	-0.0489
RRIRKRPPRLPRPRPRPRTWPRP	0.124
RRIRHRPPRLPRPRPRPVHPPRP	-0.131
RRIRTRPPRLPRPRPRPVEVPRP	-0.0848
RRIRCRPPRLPRPRPRPATWPRP	-0.104
RRIRDRPPRLPRPRPRPRDLPRP	0.139
RRIRPRPPRLPRPRPRPSHFPRP	-0.399
RRIRIRPPRLPRPRPRPRDDPRP	0.168
RRIRPRPPRLPRPRPRPYTYPRP	-0.0956
RRIRHRPPRLPRPRPRPMHLPRP	0.0317
RRIRLRPPRLPRPRPRPNTTPRP	-0.463
RRIRWRPPRLPRPRPRPAMLPRP	0.365
RRIRPRPPRLPRPRPRPAVAPRP	0.416
RRIRQRPPRLPRPRPRPHYRPRP	-0.0839
RRIRQRPPRLPRPRPRPQGNPRP	0.00341
RRIRRRPPRLPRPRPRPWHYPRP	-0.0356
RRIRERPPRLPRPRPRPTFTPRP	-0.134
RRIRWRPPRLPRPRPRPTCTPRP	0.441
RRIRIRPPRLPRPRPRPATFPRP	-0.658
